Data published in patent US20220267453A1 (SAITAMA MEDICAL UNIVERSITY, published 2022).

Columns and labels:
[1] = biological target: T1, Human ALK2-His (Cat. #10227-H088) from Sino Biological Inc. (human, UniProt Q04771 21-123); assay: ELISA of hybridoma culture supernatant on antigen immobilized at 1 µg/ml (selection of hybridomas)
T1 construct: Bought recombinant protein; also called the antigen; not shown: His tag
T1 sequence: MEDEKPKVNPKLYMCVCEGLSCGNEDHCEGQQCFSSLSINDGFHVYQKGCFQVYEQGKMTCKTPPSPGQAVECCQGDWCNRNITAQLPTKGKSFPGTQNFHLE
Method: One week after the cell fusion, using each culture supernatant, clones recognizing human ALK2-His used as the antigen were selected by the enzyme-linked immunosorbent assay (ELISA), and clones recognizing human ALK1-His (Sino Biological Inc.) were excluded. ELISA was performed as follows.
First, the antigen diluted to 1 μg/ml with PBS was immobilized onto a 96-well ELISA plate (NUNC, Cat. #442404) for 2 hours at room temperature or overnight at 4° C. The immobilized solution was removed, and the plate was blocked with a 0.5% skim milk solution dissolved in PBS for 30 minutes at room temperature. Next, the above-described culture supernatant of hybridomas was added, and the plate was left for 1 hour at room temperature. After the plate was washed, an ALP-labeled anti-rat IgG antibody (SAB, Inc.) diluted with a 0.5% skim milk solution to 1:2500 was added, and the plate was further left for 1 hour at room temperature. After the plate was washed, a phenyl phosphate substrate was reacted at room temperature, and then absorbance at a wavelength of 492 nm was measured.

[2] = biological target: T2, human ALK2-EGFP expressed in HEK293A cells (human, UniProt Q04771 21-509); assay: conclusion from flow cytometry competition with labeled A2-27D on HEK293A cells expressing human ALK2-EGFP
T2 construct: also called pcDEF3/human ALK2-EGFP; not shown: EGFP fused to ALK2
T2 sequence: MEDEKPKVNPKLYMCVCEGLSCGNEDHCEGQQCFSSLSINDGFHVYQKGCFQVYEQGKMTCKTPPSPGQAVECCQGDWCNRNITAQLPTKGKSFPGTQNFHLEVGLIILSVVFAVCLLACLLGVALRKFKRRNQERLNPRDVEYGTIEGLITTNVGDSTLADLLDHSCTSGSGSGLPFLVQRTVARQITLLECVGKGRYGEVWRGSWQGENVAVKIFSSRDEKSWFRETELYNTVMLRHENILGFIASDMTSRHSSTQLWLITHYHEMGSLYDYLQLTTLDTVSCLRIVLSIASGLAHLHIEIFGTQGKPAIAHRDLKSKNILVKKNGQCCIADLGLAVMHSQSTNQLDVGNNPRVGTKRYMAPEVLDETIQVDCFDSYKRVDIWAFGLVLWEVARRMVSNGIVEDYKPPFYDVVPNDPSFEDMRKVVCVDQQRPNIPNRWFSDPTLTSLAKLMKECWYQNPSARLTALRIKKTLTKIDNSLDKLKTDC
Method: In the same manner as in Example 3, HEK293A cells were transiently transfected with pcDEF3/human ALK2-EGFP using Lipofectamine 2000 (manufactured by Thermo Fisher Scientific Inc.). After 2.5 hours, the medium was replaced with fresh 10% FBS-containing DMEM medium, and the cells were cultured overnight. On the following day, […] each of the cell suspensions adjusted to 1×10⁶ cells/mL was dispensed into a 1.5-mL microfuge and centrifuged at 500 g for 5 minutes, and then the supernatant was removed. To the cells, 100 μL of a mixed solution of Alexa fluor 647-labeled A2-27D diluted to 1 μg/mL and 10 μg/mL purified IgG was added, and the cells were left for 30 minutes at 4° C. After the cells were washed with PBS three times, fluorescence was detected by a flow cytometer (BD Accuri C6; manufactured by BD Biosciences). The intensity of EGFP expressed by the cells and the fluorescence intensity of stained Alexa flour 647 were plotted.

[3] = biological target: T3, rat ALK2(WT)-V5-His expressed in HEK293A cells (rat, UniProt P80201 21-509); assay: conclusion from BMP-specific luciferase reporter assay in transfected HEK293A cells
T3 construct: the end 509 for rat is meant as the end of the entry; also called rat wild-type ALK2; pcDEF3/rat ALK2(WT)-V5-His; not shown: V5-His tag of the pcDEF3 construct
T3 sequence: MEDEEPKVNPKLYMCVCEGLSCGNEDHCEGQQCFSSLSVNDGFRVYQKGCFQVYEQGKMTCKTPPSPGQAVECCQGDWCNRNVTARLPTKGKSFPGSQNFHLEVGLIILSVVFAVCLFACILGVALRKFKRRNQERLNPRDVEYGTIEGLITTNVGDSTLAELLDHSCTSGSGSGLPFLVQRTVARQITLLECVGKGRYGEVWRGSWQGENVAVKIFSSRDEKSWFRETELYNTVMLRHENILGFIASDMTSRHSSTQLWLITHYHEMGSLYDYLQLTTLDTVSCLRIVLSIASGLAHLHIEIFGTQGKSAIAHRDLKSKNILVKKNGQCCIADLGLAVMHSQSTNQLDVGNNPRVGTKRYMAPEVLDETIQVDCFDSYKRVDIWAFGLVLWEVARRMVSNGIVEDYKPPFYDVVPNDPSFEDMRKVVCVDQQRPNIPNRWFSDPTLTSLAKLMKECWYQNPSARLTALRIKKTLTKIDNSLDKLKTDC

[4] = biological target: T4, human ALK2(WT)-V5-His expressed in HEK293A cells (human, UniProt Q04771 21-509); assay: as above
T4 construct: Full-length receptor overexpressed by transient transfection; also called pcDEF3/human ALK2(WT)-V5-His; human ALK2(WT)-VS-His; not shown: V5-His tag of the pcDEF3 construct
T4 sequence: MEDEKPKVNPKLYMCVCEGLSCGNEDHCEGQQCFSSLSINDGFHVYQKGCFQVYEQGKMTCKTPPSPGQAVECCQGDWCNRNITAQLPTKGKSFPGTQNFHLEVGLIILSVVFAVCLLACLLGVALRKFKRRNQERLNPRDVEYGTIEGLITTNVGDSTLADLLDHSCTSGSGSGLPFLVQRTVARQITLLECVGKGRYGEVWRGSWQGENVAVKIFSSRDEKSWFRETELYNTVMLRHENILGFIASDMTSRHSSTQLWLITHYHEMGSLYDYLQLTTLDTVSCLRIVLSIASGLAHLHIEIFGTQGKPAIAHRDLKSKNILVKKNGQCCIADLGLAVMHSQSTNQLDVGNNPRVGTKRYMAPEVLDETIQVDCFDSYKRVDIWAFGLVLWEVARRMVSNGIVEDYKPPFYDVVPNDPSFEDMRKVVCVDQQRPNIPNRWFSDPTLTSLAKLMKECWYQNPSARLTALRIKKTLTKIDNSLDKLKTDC

[5] = biological target: T5, mouse ALK2(WT)-V5-His expressed in HEK293A cells (mouse, UniProt P37172 21-509); assay: as above
T5 construct: Full-length receptor overexpressed by transient transfection; also called pcDEF3/mouse ALK2(WT)-V5-His; not shown: V5-His tag of the pcDEF3 construct
T5 sequence: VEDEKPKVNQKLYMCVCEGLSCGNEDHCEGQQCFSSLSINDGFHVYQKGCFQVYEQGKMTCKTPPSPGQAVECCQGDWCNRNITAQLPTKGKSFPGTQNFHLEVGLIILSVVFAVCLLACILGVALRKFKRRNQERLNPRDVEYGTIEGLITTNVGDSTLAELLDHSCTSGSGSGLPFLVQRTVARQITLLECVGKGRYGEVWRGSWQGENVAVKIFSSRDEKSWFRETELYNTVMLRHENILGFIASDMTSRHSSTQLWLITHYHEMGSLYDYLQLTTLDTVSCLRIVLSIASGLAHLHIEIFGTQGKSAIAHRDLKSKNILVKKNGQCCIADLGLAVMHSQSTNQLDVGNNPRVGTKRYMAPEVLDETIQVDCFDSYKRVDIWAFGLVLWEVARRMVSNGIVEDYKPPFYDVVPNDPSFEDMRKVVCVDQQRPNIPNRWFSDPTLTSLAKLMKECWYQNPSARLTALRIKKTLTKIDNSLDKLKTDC

[6] = biological target: T6, ALK2 expressed in mice (C57BL/6 mouse newborn organs, tissue sections) (mouse, UniProt P37172 21-509); assay: immunohistological staining of frozen sections of mouse newborns; 10 µg/ml primary antibody
T6 construct: Endogenous protein in paraformaldehyde-fixed frozen or paraffin sections of mouse newborns; not a purified protein; also called mouse ALK2 (endogenous)
T6 sequence: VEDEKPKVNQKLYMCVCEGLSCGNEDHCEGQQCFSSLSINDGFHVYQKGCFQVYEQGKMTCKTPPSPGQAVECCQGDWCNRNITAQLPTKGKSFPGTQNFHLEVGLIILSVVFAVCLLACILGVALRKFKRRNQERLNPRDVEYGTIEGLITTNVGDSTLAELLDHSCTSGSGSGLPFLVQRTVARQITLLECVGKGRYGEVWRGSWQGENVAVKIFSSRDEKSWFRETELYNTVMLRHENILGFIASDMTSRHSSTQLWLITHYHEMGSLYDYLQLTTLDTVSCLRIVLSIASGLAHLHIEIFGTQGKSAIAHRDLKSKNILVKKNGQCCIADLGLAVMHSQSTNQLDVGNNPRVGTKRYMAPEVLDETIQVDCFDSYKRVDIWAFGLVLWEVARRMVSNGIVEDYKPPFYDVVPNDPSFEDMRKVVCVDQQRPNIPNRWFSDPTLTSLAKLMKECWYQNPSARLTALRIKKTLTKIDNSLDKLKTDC
Method: C57BL/6 mouse newborns were each fixed in a 4% paraformaldehyde-phosphate buffer solution for 2 days and then freeze-embedded in O.C.T Compound (manufactured by Sakura Finetek Japan Co., Ltd.), and frozen sections were prepared with a thickness of 5 μm using a cryostat (manufactured by Leica Biosystems Nussloch GmbH, Cat. #CM3050S). The sections were washed with PBS three time and reacted with an endogenous enzyme activity blocking solution (manufactured by Vector Laboratories, Inc., Cat. #SP-6000) for 10 minutes. […] On the following day, the sections were washed with PBS-T three times and reacted with HRP-conjugated anti-rat IgG antibody ImmPRESS Reagent (manufactured by Vector Laboratories, Inc., Cat. #MP-7444) as a secondary antibody for 30 minutes at 37° C. Then, the sections were washed with PBS-T three times, and DAB color development (manufactured by Vector Laboratories, Inc., Cat. #SK-4100) was performed. After washing with distilled water, the sections were counter-stained with hematoxylin, mounted on a glass cover according to a standard method, and observed under BZ-9000 (manufactured by Keyence Corp.).

Measured: binding result

B1: rat anti-human ALK2 monoclonal antibody produced by the hybridoma #109 (antibody, V domains shown)
VH: EVQLVESGGDLVQPGRSMKLSCAASGFTFSNYGMAWVRQAPTKGLEWVATISYDGSGTYYRDSVEGRFTISRDNAKITLYLQMNSLRSEDTATYYCTRHGYSRVPYFDYWGQGVMVTVSS
VL: NIVLTQSPATLSVTPGESVSLSCRASQSISTNIHWYQQKSNESPRLLIKYASQSISGIPSRFSGSGSGTDFTLTINRVESEDFSIYYCQQSYSSQLTFGSGTKLEIKR
notes: Rat monoclonal antibody from a hybridoma
binds: [1]

B2: rat anti-human ALK2 monoclonal antibody produced by the hybridoma #200 (antibody, V domains shown)
VH: QVKLLQSGAALVKPGDSIRMSCKASGYTFTDYIIHWVKQSHGKSLEWIGYINPYSGGTNYNEKFKSKATLTVDKSSSTAYMEFCRLTSEDSAIYYCVRRGHDGTGFDYWGQGVMVTVSS
VL: DVVMTQTPVSLPVSLGGQASISCRSSQSLVHSNGETYLHWYLQKPGQSPQLLIYRVSNRFSGVPDRFSGSGSGTDFTLKLSRVEPEDLGDYYCLQSTHLPLTFGSGTKLEIKR
notes: Rat monoclonal antibody from a hybridoma; also called clone #200; ALK2_#200
binds: [1] | [2] | [3] | [4] | [5] | [6]
